T1: full length CD32b2 on transfected IIA1.6 cells (human, UniProt P31994-2 43-291)
T1 construct: whole, on cells; also called IIA1.6-CD32b2
T1 sequence (looked up): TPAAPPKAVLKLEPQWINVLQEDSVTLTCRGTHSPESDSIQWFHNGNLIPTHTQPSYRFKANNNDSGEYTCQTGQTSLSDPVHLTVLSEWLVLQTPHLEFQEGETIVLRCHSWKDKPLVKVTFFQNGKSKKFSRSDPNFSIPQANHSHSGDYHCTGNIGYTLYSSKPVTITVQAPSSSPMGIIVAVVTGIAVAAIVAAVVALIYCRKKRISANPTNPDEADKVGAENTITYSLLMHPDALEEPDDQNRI

T2: biotinylated CD32bECDHis (human, UniProt P31994 43-223, limits assumed, biotinylated (sites not given))
T2 sequence (looked up): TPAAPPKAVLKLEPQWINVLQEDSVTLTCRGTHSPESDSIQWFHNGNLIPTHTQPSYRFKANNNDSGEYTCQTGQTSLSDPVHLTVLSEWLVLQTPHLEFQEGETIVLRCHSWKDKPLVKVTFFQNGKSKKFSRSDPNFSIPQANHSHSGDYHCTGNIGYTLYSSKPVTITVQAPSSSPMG

T3: full length CD32a on stably transfected IIA1.6 cells (human, UniProt P12318 34-317)
T3 construct: whole, on cells; also called IIA1.6-CD32a; CD32a-expressing IIA1.6 cells
T3 sequence (looked up): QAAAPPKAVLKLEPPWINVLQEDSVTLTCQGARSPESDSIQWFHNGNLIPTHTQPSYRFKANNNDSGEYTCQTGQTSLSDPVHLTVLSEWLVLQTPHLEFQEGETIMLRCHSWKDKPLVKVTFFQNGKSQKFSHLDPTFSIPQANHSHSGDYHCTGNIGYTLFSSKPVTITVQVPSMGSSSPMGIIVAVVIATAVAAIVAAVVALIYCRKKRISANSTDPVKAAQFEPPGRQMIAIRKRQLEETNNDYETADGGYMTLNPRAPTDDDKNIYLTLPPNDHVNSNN

T4: CD32bECDHis (human, UniProt P31994 43-223, limits assumed)
T4 construct: Produced in HEK-293F cells; also called extracellular domain of CD32b with C-terminal His tag; soluble CD32b
T4 sequence (looked up): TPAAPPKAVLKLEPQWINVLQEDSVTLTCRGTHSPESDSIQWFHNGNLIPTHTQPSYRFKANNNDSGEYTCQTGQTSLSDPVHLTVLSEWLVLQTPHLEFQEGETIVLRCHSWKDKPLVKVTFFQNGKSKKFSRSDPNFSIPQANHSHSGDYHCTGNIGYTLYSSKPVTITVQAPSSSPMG


How the values were obtained:
[1] = biological target: T1, full length CD32b2 on transfected …; test: flow cytometry on IIA1.6-CD32b2 cells
Experimental: (§1) After harvesting and counting, IIA1.6 cells stably transfected with full length CD32a and CD32b (van den Herik-Oudijk et al., 1994), control IIA1.6 cells and Daudi-luc cells were resuspended in PBS (1×10⁶ cells/ml). Cells were put in 96-well V-bottom plates (100 μl/well) and washed twice with FACS buffer (PBS supplemented with 0.1% BSA and 0.02% Na-azide). Thereafter, 50 μl of serially diluted HuMab in FACS buffer was added to the cells and incubated for 30 minutes at 4° C. After washing three times with FACS buffer, 50 μl of phycoerythrin (PE)-conjugated rabbit anti-human IgG (Jackson ImmunoResearch Europe), diluted 1:200 in FACS buffer, was added. After 30 minutes at 4° C. (in the dark), cells were washed three times, and specific binding of the HuMabs was detected by flow cytometry on a FACSCalibur (BD Biosciences). […] Binding curves were analyzed using non-linear regression (sigmoidal dose-response with variable slope) using GraphPad Prism V4.03 software (GraphPad Software, San Diego, Calif., USA).
To analyze binding of anti-CD32b HuMabs to CD32b1 and CD32b2, IIA1.6 cells transfected with full length CD32b1 or CD32b2 (van den Herik-Oudijk et al., 1994) were prepared as described supra. The assay was performed as described supra. Flow cytometry was performed on a FACS Canto II (BD Biosciences).

[2] = biological target: T2, biotinylated CD32bECDHis; test: competition ELISA, competitor 026
Experimental: (§2) ELISA wells were coated overnight at 4° C. with anti-CD32b HuMabs serially diluted in PBS. The ELISA wells were washed with PBS, blocked for one hour at room temperature with 2% (v/v) chicken serum (Gibco, Paisley, Scotland) in PBS and washed again with PBS. Subsequently, the immobilized antibodies were incubated with biotinylated CD32bECDHis serially diluted in PBSTC. After washing with PBS/Tween, bound biotinylated CD32bECDHis was incubated with Streptavidin-poly-HRP (Sanquin, Amsterdam, The Netherlands) for 1 hr at RT an the reaction was developed as described supra.
(§3) To this end, ELISA wells coated with anti-CD32b HuMabs were incubated in the presence of an excess of CD32b-specific antibody and the predetermined concentration of biotinylated CD32bECDHis in fluid phase. The reaction was developed as described.

[3] = biological target: T3, full length CD32a on stably transfected …; test: flow cytometry on IIA1.6-CD32a cells
Experimental: as §1

[4] = biological target: T2, biotinylated CD32bECDHis; test: competition ELISA, competitor 053
Experimental: as §2, §3

[5] = biological target: T2, biotinylated CD32bECDHis; test: competition ELISA, competitor 034
Experimental: as §2, §3

[6] = biological target: T4, CD32bECDHis; test: ELISA on coated CD32bECDHis
Experimental: The specificity of the obtained anti-CD32b HuMabs was evaluated by ELISA. ELISA plates (Microlon; Greiner Bio-One) were coated overnight at 4° C. with 2 μg/ml of CD32aECDHis and CD32bECDHis in PBS, pH 7.4. Coated ELISA plates were washed with PBS, blocked for one hour at room temperature with 2% (v/v) chicken serum (Gibco, Paisley, Scotland) in PBS and washed again with PBS. Subsequently, HuMabs, serially diluted in PBSTC (PBS supplemented with 2% (v/v) chicken serum and 0.05% (v/v) Tween-20), were incubated for 1 hr at RT under shaking conditions (300 rpm). Bound HuMabs were detected using HRP-conjugated goat-anti-human IgG antibodies (Jackson ImmunoResearch Europe) diluted 1:10,000 in PBSTC, which were incubated for 1 hr at RT under shaking conditions (300 rpm). […] Binding curves were analyzed using non-linear regression (sigmoidal dose-response with variable slope) using GraphPad Prism V4.03 software.

[7] = biological target: T3, full length CD32a on stably transfected …; test: flow cytometry on IIA1.6 cells expressing full length CD32a, PE anti-human IgG, MFI
Experimental: as §1

EC50 [1] [pM] | % residual binding [2] [%] | EC50 [3] [pM] | % residual binding [4] [%] | % residual binding [5] [%] | EC50 [6] [pM] | binding result [7] | Binder
270 | 308 | 3480 | 333 | 354 | 620 |  | Antibody 038 (antibody, human IgG1, V domains shown, Human antibody; also called HuMab 038) VH: QVQLVESGGGVVQPGRSLRLSCAASGFTFSTYGMHWVRQAPGKGLEWVAVISHDGSDKYYADSVKGRFTISRDNSKNTLYLQMNSLRAEDTAVYYCARDQSIIETFDYWGQGTLVTVSS VL: EIVLTQSPATLSLSPGERATLSCRASQSVSSYLAWYQQKPGQAPRLLIYDASNRATGIPARFSGSGSGTDFTLTISSLEPEDFAVYYCQQRSNWGFTFGPGTKVDIKR
1960 | 56 |  | 69 | 6 | 750 | no binding (tested: about 7e-8 M) | Antibody 024 (antibody, V domains shown, also called HuMab 024) VH: QVQLVQSGAEVKKPGASVKVSCKASGYTFTSYGLSWVRQAPGQGLEWMGWISPYNGNTHYAQKLQGRVTMTTDTSTSTAYMDLRSLRSDDTAVYYCARDSAAHGMDVWGQGTTVTVSS VL: DIQMTQSPSSLSASVGDRVTITCRASQGISSWLAWYQQKPEKAPKSLIYAASSLQSGVPSRFSGSRSGTDFTLTISSLQPEDFATYYCQQYNSYPYTFGQGTKLEIKR
 | 4 |  | 29 | 0 | 510 | no binding (tested: about 7e-8 M) | Antibody 026 (antibody, V domains shown, Human antibody; also called HuMab 026) VH: QVQLVQSGAEVKKPGASVKVSCKASGYTFTSYGLSWVRQAPGQGLEWMGWISAYNGNTNYAQKLQGRVTMTTDTSTSTAYMDLRSLRSDDTAVYYCARDSAAHGMDVWGQGTTVTVSS VL: DIQMTQSPSSLSASVGDRVTITCRASQGISSWLAWYQQKPEKAPKSLIYAASSLQSGVPSRFSGSRSGTDFTLTISSLQPEDFATYYCQQYNSYPYTFGQGTKLEIKR
2180 | 32 |  | 51 | 2 | 480 | no binding (tested: about 7e-8 M) | Antibody 028 (antibody, V domains shown, List 1 gives no VL for antibody 028; The VL is therefore uncertain; also called HuMab 028) VH: QVQVVQSGAEVKKPGASVKVSCKTSGYTFTSYGISWVRQAPGQGLEWMGWISAYNGNTKYAQKLQGRLTMTTDTSTTTAYMELRSLRSDDTAVYYCARDSAAHGMDVWGQGTTVSVSS VL: DIQMTQSPSSLSASVGDRVTITCRASQGISSWLAWYQQKPEKAPKSLIYAASSLQSGVPSRFSGSRSGTDFTLTISSLQPEDFATYYCQQYNSYPYTFGQGTKLEIKR
 | 28 |  | 42 | 1 | 490 | no binding (tested: about 7e-8 M) | Antibody 020 (antibody, V domains shown, also called HuMab 020) VH: QVQLVQSGGEVKKPGASVKVSCKTSGYTFTSYGISWVRQAPGQGLEWMGWISAYNGNTKYAQKLQGRLTMTTDTSTTTAYMELRSLRSDDTAVYYCARDSAAHGMDVWGQGTTVTVSS VL: DIQMTQSPSSLSASVGDRVTITCRASQGISSWLAWYQQKPEKAPKSLIYAASSLQSGVPSRFRGSGSGTDFTLTISSLQPEDFATYYCQQYNSYPYTFGQGTKLEIKR
 | 42 |  | 64 | 7 | 750 | no binding (tested: about 7e-8 M) | Antibody 022 (antibody, V domains shown, also called HuMab 022) VH: QVQLVQSGAEVKKPGASVKVSCKASGYTFTSYGLSWVRQAPGQGLEWMGWISPYNGNTHYAQKLQGRVTMTTDTSTSTADMDLRSLRSDDTAVYYCARASAAHGMDVWGQGTTVTVSS VL: DIQMTQSPSSLSASVGDRVTITCRASQGISSWLAWYQQKPEKAPKSLIYAASSLQSGVPSRFSGSRSGTDFTLTISSLQPEDFATYYCQQYNSYPYTFGQGTKLEIKR

— US20110038869A1 (Genmab, published 2011)
